Experimental findings from US20240376180A1 (DEUTSCHES ZENTRUM FUR NEURODEGENERATIVE ERKRANKUNGEN E V …, published 2024) are described below.

For test [1], the target named is SARS-CoV-2 S protein-RBD-mFc (SARS-CoV-2, UniProt P0DTC2 319-537).
A further test addresses beta-2 microglobulin (Homo sapiens (Human), UniProt P61769 21-119). Put plainly: routine laboratory ELISA.
Test [2] has as its target T1, Spike protein of authentic SARS-CoV-2 (Munich isolate 984) (SARS-CoV-2, UniProt P0DTC2 14-1273). Put plainly: cell-based or functional assay. Set-up: IC90 Neutralizing Assay: unit not given beside the values.
The target in test [3] is T1, Spike protein of authentic SARS-CoV-2 …. Put plainly: cell-based or functional assay.
Test [4] deals with Fc fusion protein of the RBD-SD1 region of SARS-CoV (SARS-CoV, UniProt P59594 306-577). Put plainly: ELISA on captured RBD-SD1-Fc. A general note: In an ELISA, binding on a coated surface is turned into a signal by an enzyme label.
Test [5] deals with T2, Fc fusion protein of the RBD-SD1 region of MERS-CoV (MERS-CoV, UniProt K9N5Q8 367-655).
T2 sequence: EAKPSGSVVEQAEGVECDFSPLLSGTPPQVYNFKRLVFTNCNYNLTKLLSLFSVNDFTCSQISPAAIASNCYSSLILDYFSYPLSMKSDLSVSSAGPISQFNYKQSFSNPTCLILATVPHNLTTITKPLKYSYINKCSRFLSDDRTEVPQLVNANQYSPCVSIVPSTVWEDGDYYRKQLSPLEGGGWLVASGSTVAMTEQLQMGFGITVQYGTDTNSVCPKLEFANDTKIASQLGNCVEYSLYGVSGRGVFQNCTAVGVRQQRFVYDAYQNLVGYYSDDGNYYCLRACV
Put plainly: ELISA on captured RBD-SD1-Fc.

In test [6] the target is T3, Fc fusion protein of the RBD-SD1 region of HCoV-HKU1 (HCoV-HKU1, UniProt Q5MQD0 310-677).
T3 construct: domain: RBD-SD1 region
T3 sequence: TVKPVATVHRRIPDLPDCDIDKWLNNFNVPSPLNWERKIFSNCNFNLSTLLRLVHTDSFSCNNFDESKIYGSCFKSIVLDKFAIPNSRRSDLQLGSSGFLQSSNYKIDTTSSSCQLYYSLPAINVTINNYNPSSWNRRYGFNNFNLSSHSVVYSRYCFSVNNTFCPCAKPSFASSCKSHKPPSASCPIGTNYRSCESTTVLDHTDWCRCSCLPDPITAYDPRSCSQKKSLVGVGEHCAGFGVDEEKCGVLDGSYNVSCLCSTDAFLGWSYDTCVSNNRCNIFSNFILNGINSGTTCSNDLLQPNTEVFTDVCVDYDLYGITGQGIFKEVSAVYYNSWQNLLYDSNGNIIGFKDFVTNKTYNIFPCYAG
Put plainly: ELISA on captured RBD-SD1-Fc.

For test [7], the target named is T4, Fc fusion protein of the RBD-SD1 region of HCoV-OC43 (HCoV-OC43, UniProt P36334 318-675).
T4 construct: domain: RBD-SD1 region
T4 sequence: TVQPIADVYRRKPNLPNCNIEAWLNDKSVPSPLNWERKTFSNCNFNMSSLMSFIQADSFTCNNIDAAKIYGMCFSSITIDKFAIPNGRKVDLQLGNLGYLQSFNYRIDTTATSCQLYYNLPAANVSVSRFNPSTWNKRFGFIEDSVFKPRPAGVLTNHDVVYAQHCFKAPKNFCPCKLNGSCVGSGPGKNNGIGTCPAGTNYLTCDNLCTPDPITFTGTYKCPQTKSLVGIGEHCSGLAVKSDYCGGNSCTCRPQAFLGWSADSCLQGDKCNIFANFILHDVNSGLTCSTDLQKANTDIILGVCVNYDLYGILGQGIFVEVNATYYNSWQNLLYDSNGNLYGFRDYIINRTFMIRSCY
Put plainly: ELISA on captured RBD-SD1-Fc.

In test [8] the target is SARS-CoV-2 spike on S-pseudotyped MLV virions (SARS-CoV-2, UniProt P0DTC2 14-1255). Put plainly: cell-based or functional assay.
Test [9] has as its target SARS-CoV spike on S-pseudotyped MLV virions (SARS-CoV). Put plainly: cell-based or functional assay.

Some results are limits rather than exact numbers.

Chain of beta-2 microglobulin (P61769 21-119 limits assumed): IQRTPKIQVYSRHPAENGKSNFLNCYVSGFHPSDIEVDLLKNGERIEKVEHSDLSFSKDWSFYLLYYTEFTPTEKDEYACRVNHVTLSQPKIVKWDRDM

B1: HL CV07-283 (antibody, V domains shown)
VH: QVQLVQSGAEVKKPGASAKVSCKASGYTFTGYYIHWVRQAPGQGLEWMGLINPISGGTNYAQKFQDRVTMTRDTSISTAYMELSRLRSDDTAVYYCVRGPFYYDSSGPLGGMDVWGQGTTVTVSS
VL: QSALTQPASVSGSPGQSITISCTGTSGDVGGYNYVSWYQQHPGKAPKLMIYEVSNRPSGVSNRFSGSKSGNTASLTISGLQAEDEADYYCSSYTSSSTYVFGTGTKVTVLG
Broadly, the Kd is the equilibrium constant for the complex coming apart. B1 displayed a dissociation constant Kd in test [1] of 0.0475 nM. Also, the binding result is “no binding (tested: 50 µg/ml)” in the test with beta-2 microglobulin; “no binding (tested: 1 µg/ml)” in test [4]; “no binding (tested: 1 µg/ml)” in test [5]; “no binding (tested: 1 µg/ml)” in test [6]; “no binding (tested: 1 µg/ml)” in [7]. In addition, the “IC50 Neutralizing Assay” value in [2] is approximately 0.05 µg/mL. Moreover, the “IC90 Neutralizing Assay” value in [2] was more than 500. Also, in test [3], the “IC50 (PRNT, authentic SARS-CoV-2)” value is 0.0169 µg/mL.

B2: HL CV07-250 (antibody, V domains shown)
VH: QVQLVQSEAEVKEPGASVEVSCKASGYNFTNFAISWVRQAPGQGLEWMGWISGYNGDTNSAQKFLGRVTMTTDTSTTTAYMELRSLRSDDTAVYYCAGSDNYGFPYNGMDVWGQGTTVTVSS
VL: QSALTQPPSASGSPGQSVTISCTGTSSDLGAYHFVTWYQHYPGKAPKVMIYGVRKRPSGVPDRFSGSKSGNTASLTVSGLQDEDEADYYCSSYAGNNDFVFGGGTKLTVLS
Regarding B2, in test [1], the dissociation constant Kd turned out to be 0.0564 nM. The binding result with beta-2 microglobulin was “no binding (tested: 50 µg/ml)”; in [4], “no binding (tested: 1 µg/ml)”; in test [5], “no binding (tested: 1 µg/ml)”; in test [6], “no binding (tested: 1 µg/ml)”; in test [7], “no binding (tested: 1 µg/ml)”. Moreover, the “IC90 Neutralizing Assay” value in [2] is more than 500. Besides, the “IC50 (PRNT, authentic SARS-CoV-2)” value in test [3] stood at 0.0035 µg/mL.

B3: HK CV07-287 (antibody, V domains shown)
VH: QVQLVQSGPEVKKPGTSVKVSCKASGFTFTSSAMQWVRQARGQRLEWIGWIVVGSGNTNYAQKFQERVTITRDMSTSTAYMELSSLRSEDTAVYYCAAPYCSSTNCYDAFDIWGQGTMVTVSS
VL: not shown
Molecule B3 came in with a Kd in test [1] of 0.16 nM. Moreover, the binding result with beta-2 microglobulin is given as “no binding (tested: 50 µg/ml)”; in [4], “no binding (tested: 1 µg/ml)”; in test [5] it was “no binding (tested: 1 µg/ml)”; in test [6] it was “no binding (tested: 1 µg/ml)”; in test [7], “no binding (tested: 1 µg/ml)”. Also, the “IC90 Neutralizing Assay” value in test [2] was more than 500. Further, in test [3], the “IC50 (PRNT, authentic SARS-CoV-2)” value was determined as 0.0417 µg/mL.

B4: HL CV07-315 (antibody, V domains shown)
VH: EVQLVESGGGLVQPGRSLRLSCAASGFTFDDYAMHWVRQAPGKGLEWVSGISWNSGSIGYADSVKGRFTISRDNAKNSLYLQMNSLRAEDTALYYCAKDFLWDLHPPRYYGMDVWGQGTTVTVSS
VL: QSVLTRPPSVSAAPGQKVTISCSGSSSNIGNNYVSWYQQLPGTAPKLLIYENNKRPSGIPDRFSGSKSGTSATLGITGLQTGDEADYYCGTWDSSLNGVFGGGTKLTVLG
In test [1], B4 showed a Kd of 0.0112 nM. Besides, the binding result in the test with beta-2 microglobulin is listed as “no binding (tested: 50 µg/ml)”; in [4], “no binding (tested: 1 µg/ml)”; in test [5], “no binding (tested: 1 µg/ml)”; in test [6], “no binding (tested: 1 µg/ml)”; in test [7] it was “no binding (tested: 1 µg/ml)”. Moreover, the “IC50 Neutralizing Assay” value in test [2] was approximately 0.05 µg/mL. The “IC50 (PRNT, authentic SARS-CoV-2)” value in test [3] stood at 0.0249 µg/mL.

B5: HK CV38-113 (antibody, V domains shown)
VH: EVQLVESGGGLVQPGGSLRLSCAASGFTVSSNYMSWVRQAPGKGLEWVSVIYSGGSTYYADSVKGRFTISRHNSKNTLYLQMNSLRAEDTAVYFCARGGRLADAAGDYWGQGTLVTVSS
VL: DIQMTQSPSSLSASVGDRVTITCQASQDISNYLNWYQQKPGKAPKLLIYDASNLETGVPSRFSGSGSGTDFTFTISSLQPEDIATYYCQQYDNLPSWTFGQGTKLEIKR
In [1], B5 returned a Kd of 0.134 nM. Moreover, the binding result in the test with beta-2 microglobulin is “no binding (tested: 50 µg/ml)”; in test [4], “no binding (tested: 1 µg/ml)”; in test [5], “no binding (tested: 1 µg/ml)”; in test [6], “no binding (tested: 1 µg/ml)”; in [7], “no binding (tested: 1 µg/ml)”. Also, the “IC50 Neutralizing Assay” value in [2] was approximately 0.05 µg/mL. Moreover, in [3], the “IC50 (PRNT, authentic SARS-CoV-2)” value is 0.0208 µg/mL.

B6: HK CV38-142 (antibody, V domains shown)
VH: EVQLVQSGAEVKKPGESLKISCQGSGYSFTSYWIGWVRQMPGKGLEWMGIIYPGESDTRYSSSFQGHVTISADKSISTAYLQWSSLKASDTAMYYCARIRGVYSSGWIGGDYWGQGTLVTVSS
VL: not shown
For B6, the “pseudovirus neutralization assay, potency (IC50)” value was determined as 3.5 µg/mL in test [8] and 1.4 µg/mL in test [9]. Moreover, in the test with beta-2 microglobulin, the binding result was “no binding (tested: 50 µg/ml)”. The “IC50 Neutralizing Assay” value in [2] is approximately 0.05 µg/mL. In addition, in test [3], the “IC50 (PRNT, authentic SARS-CoV-2)” value was found to be 0.0232 µg/mL.
